Experimental data reported in the nanobody polyreactivity screen of Harvey et al. (2022).

Assay: yeast display, Sf9 membrane polyspecificity reagent, FACS + sequencing; frameworks hold sequencing errors
Method in brief: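 Genes from sorted yeast were amplified by colony PCR, read by MiSeq 2 × 250 sequencing and filtered on CDR length. These cells carried a synthetic nanobody library in Saccharomyces cerevisiae BJ5465 and were sorted by FACS into low and high (top ~1%) gates on anti-HA and streptavidin fluorescence. Polyreactivity is labelled according to the gate of origin.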

Sequence	polyreactivity (PSR sort gate)
QVQLQESGGGLVQVGGSQSLICAASGNIFYNYAMGWYRHAQGKEREFDATINHGTSINYADSVKGRFTISRDNAKNTVYLQMNSLKPEDTAVYYCAADLSRTDNLFYWGQGTQVTVSS	low polyreactivity
QVQLVDSGGGLFQAGGSLRLSCAASGRTFVGYSMGWYRQAPGKEMEVVATITNDDITYADSVKGRFTISRDNAMNTVYLQMNSLNPEETAVYYCNTSYSYGTAYEQYRYKALYDYWGHGTQVTVSS	low polyreactivity
QVQLVESGGRLVQAGGSLRLSCAASGSIFLAYAMGWYRQAPGKEREFVAAISFSDGSTYYADSVKGRFTISRDNAKNTVYLQMNSLKPEDTAVYYCNKGASPDDYDYWGQGTQVTVSS	low polyreactivity
QVQLVESGGGLVQAGGSLRLSCAASGFIFNLYAMGWYRQAPGKERELVAAISSGGGTSYADSVKGRFTISRDNAKNTVYLQMNSLKPEDTAVYYCAAGYKRRYYWKGYTRYDYWGQGTQVTVSS	high polyreactivity
QVQLVESGGGLVQAGGRLRLSCAASGITFYENAMGWYRQAPGKERELVAAISYSGGNTYPDSVKGRFTISRDNEKNTVYLQMNSLKPEDTAVYYCNADYAGWGEYDYCGQGTQVTVSS	low polyreactivity
QVQLVESGGGLVQAGRSLRLSCAASGSTLTRNAMGWYRQAPGKERELVAAITQRGGSTYYADSVKGRFTISRDNAKNTVYLQMNSLKPEDTAVYYCAAAYRGYARHDYWGQGTQVNVSS	high polyreactivity
QVQLVESGGGLVKAGGSLRLSCAASGSTFAKYAMGWYRQAPGKERELDASIRLSGGSTYYADSVKGRFTISRDNAKNNVYLQMNSLKPEDTAVYYCNKQFATFYYGFDYYYWGQGTQVTVSS	low polyreactivity
QVQLVESGGGLVQEGGSLRLSCSDSGRILRRYTMGWYRQAPGKERELVAAISSGGNTYYADSVKGRFTISRDNAKNTVYLQMNSLKPEDTGVDYCAARVRRYWEYDYWGKGTQVTVSS	low polyreactivity
QVQLVESGGGLVQAVGSLRLSCAASGLTFYSNAMGWYRQAPGKERELVATISQDGGRTYADSLKGRFTISRDNAKNTVYLQMNSLKPEDTAVYYCAKVRERINYDYWGQGTQVTVSS	low polyreactivity
QVQIVESGGGLVQAGGSLRLSCAASGFTFVYYVMGWYRPAPGKERELVAAINSGGGSTYYADSVKGRFTISRDKAKNTVYLQMKSLKPEDTAVYYCNARVRVRLGRNWSSYYYWGQGTQVTVSS	high polyreactivity
QVQLVESGGGLVQAGGSLRLSCAASGRIFSAYAMGWYRQAPGKERELVAAISKRGGRTYYADSVKGRFTISRDNAKNTVYLQMNSLKPEDTAVYYCNKRYHDGHELDYWGQGTQVTVSS	high polyreactivity
QVQLVETGGGLVQAGGSLLLSSAASGIIIRYYGMGCYGQAPGTERELVARIRWTGGSTYSADSVKGRFTISRDNAKNTVYLQMNSLKPEDTAVYYCAADIWQYSRIANYHPFDYWGQGTQVTVSS	low polyreactivity
QVQLVESGGGLVQAGGSLRLSCAASGSTFTYYTMGWYRQAPGKERELVAAISRTTGSTYYADSVKGRFTISRDNAKNTVYLQMNSLKPEDTAVYYCAADYYTRYQYGYWGQGTQVTVSS	low polyreactivity
QVQLVESGGGLVQAGGSLRLSCSASGSTFDVYAMGRYRQAPGKERELVAAISRSGGSTYYADSVKGRFTISRDNAKNTVYLQMNSLKPEDTAVYYCAAEVGIVDYDYWGQGTQVTVSS	low polyreactivity
QVQLVESGGGLVQAGGSLRLSCAASGSTFYYNDMGWYRQAPGKERELVAAIRTSGSTNYADSVKGRFTISRDNAKNTVYLQMNSLKPEDTAVYYCNAVVRHWFQGWYGRGDDYWGQGTQVTVSS	low polyreactivity
QVQLVESGGGLVQAGGSLRLTCAASGRIIGFNAMGWYRQAPGKERELVASIRTTGGTTYYADSVKGRFTISSDNAKNTVYLQMNSLKPEDTAVYYCAARRYPPRMDYWGQGTQVTVSS	high polyreactivity
QVQLVESRGGLVQAGGSLRLSCAASGSIFGWYAMGWYRPAPGKERELVAAINWSGGRTYYADSVKGRFTISRDNAKNTVYLQMNRLKPEDTAVYYCNKVVPGYSAPKYDYWGQGTQVTVSS	high polyreactivity
QVQLVEAGGGLVQAGGILRLSSAASGSIFPLNAMGWYRQAPGKERELVAAISESGGRTYYADSVNGRFTISRDNAKNTVYLQMNSLNPEDTAVYYCATVRLARKSAPYDYWGQGTQVTVSS	high polyreactivity
QVQLVESGGGLVQAGCSLRLSWAASGRTFFSNAMGWYRQAPGKERELVAAISNGDNTYYADSVKGRFTISRDNAKNTVYLQMNSLKPEDTAVYYCAKDYRWVWRKYGYWGQGTQVTVSS	low polyreactivity
QVQLVESGGGLVQAGGSLRLSCDASGNTFGSYAMGWYGQAPGKEREVVASISGGGSTNYADSVKGRFTISRDNATNTVYLQMNSLKPEDTAVYDCAPRYYYRYYWRQGTQVTVSS	low polyreactivity
QVQHVESLGGLVQAGGSLRLSCAASGIIFGYYAMGWYRQAPGKERELVAAISRRGGSTYYADSVKGRFTISRDNAKNTVYLQMNSLKPEDTAVYYCAAVELRLSTPDMESWGQGTQVTVSS	high polyreactivity
QVQLVESGGGLVQAGGSLRLICAASGSTFFYYAMGWYRQAPGKERELVARISGGGSTNYADSVKGRFTISRDNAKNTVYLKMNSLNPEDTAVYYCAADRYHYYRYSYGRYGYWGQCTQVTVSS	high polyreactivity

Sequence	polyreactivity (PSR sort gate)
QDQLVESGGGLVQAGGSLRLSCAASGRIFVPYSKGWYRQATGKERELVAAISLRGGTTYYSDSVKGRFTISRDNAKNTVYLQMNSLKPEDTAVYYCAARGYVSVWRPYHWFVAGDYWGQGTQVTVSS	high polyreactivity
QVQLVESGGGLVQAVGSLRLSFAASGFTFGRNSLGWYRQAPGKERELVAAMTSRVGSTYYADSVKGRFTISRDKAKNTLYLQMNSLKPEDTAVYYCAAVKGPERPTTPYDYWGQGTQVTVSS	high polyreactivity
QFHLVESGGGLVQAGGSLRLSCAAYGIIFYSYTMGWYRQAPGKERELVAAISRSGGSTYYADSVKGRFTISRDNAKNTVYLQMNSLKPEDTAVYYCAQVGNTAGYDYWGQGSQVTVSS	high polyreactivity
QVQLVESGGGLVQAGGSIRLSCAASGSTFWPYAMGWYRQAPGKERELVAAITTSGGITYYADSVKGRFTISRDKAKITVYLQMNSVKPEDTAVYYCAADLSYHGYGYWGQGTQVTVSS	low polyreactivity
QVQLVESGGGLVQAGGSLRLSCAASGFTFSKYTMGWYRQAPGKERELVAAITSGGSTNYADSVKGRFTISRDNAKNTVYLQMNSLKPEDTAVYYCNKRHIAHNAVGAGLELDYWGQGTQVTVSS	low polyreactivity
QVQLVESGGGLVQAGGSLRLSCAPSGFIFGLYVMGWYRQAPGKERELVAAITTSVGSTYYADSVKGRFTISRDNAKNTVYLQMNSLKPEDTAVYYCAKTSGTIDYDYWGQGTQVTVSS	low polyreactivity
QVQLVESGGGLVQAGGSLRLSCAASGSTFQPYAMGWSRQAPGKERECVATISGSAGSTYYADSVKGRFKISRDNAKNTVYLQMNSLKPEDTAVYYCKAESPEGYRLLDYWGQGTQVTVSS	low polyreactivity
QVQLVESGGGLVQAGGSLRLSCAASGRTFGSYAMGWYRQAPGKERELVAAISSSGGRTYYADSVKGRFTISRDNAKTTVYLQMNSLKPEDTAVYSCNARWRFLYDYWGQGTQVTVSS	high polyreactivity
QVQLVESGGGLVQAGGSLRLSCAASGSTFVRNAMGWYRQAPGKERELVAAITSSGGSTYYADSVKGRFTISRDNAKNTVYLQMNSLKPVDTAVYYCNARVPPQGWGPWKAFDYWGQGTQVTVSS	low polyreactivity
QVQLVETVRGLVQAGGSLRITCAASGRIYAYYSMGWYRQPPGKERELVAAITRSGGSTYYADSVKGRFTNSRDIAKYTVYIQMISLKPEDNAVYYCAPSLNVPYATMNYWGQGTQVTVSA	high polyreactivity
QVQLVESGGGLVQAGGSLRLSCAASGFPFVYYVMGWYRPAPGKERELVAAINAGGGYTYYADSVKGRFTISRDNAKNTVYVQMNSLKPEDTAVYYCNARVRVRLGRNWSSYYYWGQGTQVTVSS	high polyreactivity
QVQQVESGGGLVQAGVSLRLSCPASGLTFYTNPRGWYRQAPGKERELVAAIRRRGGRTYYADSVKGRFTISRDNATNSVYLQMNSLKPEDTAVSYCAADYSTLYNYDYWGQGTQVTVSS	low polyreactivity
QVQLVESGGGLVQAGGSLRLSCAASGFTFNGNAMGWYRQAPGKERELVAAISYSGGSTYYADSVKGRFTISRDNAKNTVYLQMNSLKPVDTAVFYCAADRTAYSVRAFTKDHSGHDYCGQGTQVTVSS	low polyreactivity
QVQLVESGGGLVQAGGSLRLSCAASGRTFRFYAMGWYRQAPGKERELVAAITYRGGTYYADSVKGRFTISRDNAKNTVYLQMNSLKPEDTAVYYCAVKPSGWSGMDYWGQGTQVTVSS	high polyreactivity
QVQLVESGGGLVQAGGSLRLSCAASGRTFTYYAMGWYRQGPGKESELVAAITSGGRTYYADSVKGRFTISRDNAKNTVYLELNSLKPDDTAVYYCADRRIRDYYRSYDYWGQGTQGTVSS	high polyreactivity
QVQLVESGGGLVQAGGSLRLSCAASGRTFKCYAMGWYRQAPGKETELVAAISYRGGSTYYADSVKGRFTISRDNAKNTVYLQIKRLKPEDTAVYYCAARWNRGRYDYWGQGTQVTESS	high polyreactivity
QVQLVESGGGLVQAGGSLRLSCAASGFTSDTNAMGWYRQAAGKERELVAAIDSGGGSTYYADSVKGRFTISRENSKNTVYFQMNSLKPEDTAVYYCNAEQTPFVASLRVGEYGYWGQGTQVTVSS	low polyreactivity
QVQLVESGGGLVQSGGSLRLSCAASGSTFSTYAMGWYRQAPGKERQLVAGITGSGGRTYYADSVKGRFTISRDNAKHTVYLQMNSMKPEDTGVYYCAASTRGYKWVGRDYDYWGQGTQVTVSS	high polyreactivity
QVQLVESGGGLVQAGGSLLLSCAASGLIFYWYAMGWYRQAPGKERELVAAISGGDRTKYADSVKGRFTISRDNAKNTVYLQMISLKPEDSAVYYCATAPYDTSRRYGPYEYWGQRTQVTVSS	low polyreactivity
QVQLVESGGGLVQAGGSLRLSCAASGFTFQYYAMGWYRQAPGKERELVAAISGTSGSTRYADSVKGRFTISRDNSKNTVYLQMNSLKPEDSAVYYCAAGSRGKVPVGLRYGYYYWGQGTQVTVSS	high polyreactivity
QVQLVESGGGLVQAGGSLRLSCAASGCTFDYNAMGWYRQAPGKEREFVAAIDYSSGSTYYADSVKGRFTISRDNAKNTVYLQMNCLKPEDTAVYYCNAPIAVGSGLFDYWGQGTQVTVSS	high polyreactivity
